This note sets out measurements from patent US20240400689A1.

The target in test [1] is human CD276 protein (human) (UniProt Q5ZPR3). The test is described as follows: cell-based or functional assay.
Test [2] has the same target. The test is described as follows: FACS on SKOV3 cells.

Where “and” joins values, the source holds several entries; their conditions need not be identical. Identical values can stand only once.

Sequence of human CD276 protein (human) (Q5ZPR3 29-534): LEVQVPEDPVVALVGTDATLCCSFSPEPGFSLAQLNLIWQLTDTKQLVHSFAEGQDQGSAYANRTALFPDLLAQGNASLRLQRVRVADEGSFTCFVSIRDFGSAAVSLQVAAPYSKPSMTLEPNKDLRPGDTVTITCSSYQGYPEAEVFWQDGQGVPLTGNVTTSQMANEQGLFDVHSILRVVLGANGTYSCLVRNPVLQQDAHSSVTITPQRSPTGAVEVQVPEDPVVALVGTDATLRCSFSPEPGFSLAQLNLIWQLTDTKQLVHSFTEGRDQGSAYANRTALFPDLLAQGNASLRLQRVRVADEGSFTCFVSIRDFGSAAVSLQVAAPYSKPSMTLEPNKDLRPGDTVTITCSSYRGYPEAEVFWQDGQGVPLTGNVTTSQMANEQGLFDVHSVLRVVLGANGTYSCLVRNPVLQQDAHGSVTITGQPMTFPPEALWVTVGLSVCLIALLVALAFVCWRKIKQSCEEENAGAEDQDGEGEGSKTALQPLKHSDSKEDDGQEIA

Regarding MGA271-WT Fc (antibody), in test [1], the EC50 of antibody induced CDC effect was 8.91 nM and 9.64 nM; the Top cytotoxicity (%), CDC was 19.6% and 19.8%. igG (antibody) returned an MFI (Max) in test [2] of 115.
